Patent US20040091985A1, “NAD phosphite oxidoreductase, a novel catalyst from bacteria for regeneration of NAD(P)H” (priority 2002, published 2004)
“And” between values parts separate entries of the source, which are not always exact repeats. Equal values may be shown once.

Substrate: NC(=O)c1ccc[n+]([C@@H]2O[C@H](COP(=O)([O-])OP(=O)(O)OC[C@H]3O[C@@H](n4cnc5c(N)ncnc54)[C@H](O)[C@@H]3O)[C@@H](O)[C@H]2O)c1
Test: purified protein, by the assay type
Conditions: pH 7.25, 30.0 °C

B1: PtxD (Stutzerimonas stutzeri) (protein)
chain: MLPKLVITHRVHDEILQLLAPHCELMTNQTDSTLTREEILRRCRDAQAMMAFMPDRVDADFLQACPELRVVGCALKGFDNFDVDACTARGVWLTFVPDLLTVPTAELAIGLAVGLGRHLRAADAFVRSGEFQGWQPQFYGTGLDNATVGILGMGAIGLAMADRLQGWGATLQYHEAKALDTQTEQRLGLRQVACSELFASSDFILLALPLNADTQHLVNAELLALVRPGALLVNPCRGSVVDEAAVLAALERGQLGGYAADVFEMEDWARADRPRLIDPALLAHPNTLFTPHIGSAVRAVRLEIERCAAQNIIQVLAGARPINAANRLPKAEPAAC
B1 was tested, and the Km (other: Table 4, NAP as A, fit to Equilibrium ordered mechanism) was 4520 µM, the Km (other: Table 4, NAP as A, fit to Pingpong mechanism) was 12800 µM and the Km (other: substrates of PtxD) was 54.6 ± 6.7 µM and 50 µM.
